B1: VHH R3VQ (VHH)
VHH: EVQLQASGGGLVQTGDSLRLSCADSGSTFRNYNIGWFRQTPGQAREFVAAVSRTGISTHVADSLQGRFTISRDNAKNTVYLQMNSLKPEDTAVYSCAAGRPGVGAVNRAMDYDYWGQGTQVTVSS
notes: Alpaca VHH, monomeric; Expressed with a His-tag or a Strep-tag; also called R3VQ(His)-NH2 1; R3VQ-NH2 1; not shown: 6-Histidine tag (vector pET23) or Streptavidin-tag (vector pASK IBA2)

Experiments:
A-beta 42 peptide (Aβ42) = target: T1, A-beta 42 peptide (Aβ42) (human); assay: competition ELISA in solution (method of Friguet et al.)
T1 construct: Synthetic peptide (Bachem); on the western blot it ran as monomers, dimers and trimers; also called Aβ1-42; amyloid β peptide 42

Aβ fragment 29-40 = target: T2, Aβ fragment 29-40 (human); assay: competitive inhibition ELISA with soluble Aβ fragments
T2 peptide: GAIIGLMVGGVV
Procedure: (§1) The binding affinity of VHHs was determined as previously described (Friguet B. et al., 1985, Immunol Methods, 77:305-19). Briefly, various concentrations of Aβ peptides (Aβ fragments 1-16, 10-20, 15-25, 22-35 and 29-40) were incubated in solution overnight at 4° C. with a known quantity of VHH until equilibrium was reached. The VHH concentration used was deteimined by preliminary ELISA calibrations. Each mixture (100 μl) was transferred to a well of a microtiter plate previously coated with antigen and was incubated for 20 min at 4° C. The plates were washed with buffer 0.1% Tween 20 in PBS and bound VHHs were detected by adding beta-galactosidase-conjugated goat anti-rabbit Igs (Biosys, Compiegne, France) and 4-methylumbelliferyl […] (Sigma). Fluorescence was read (Fluoroskan, Labsystem, Finland) at 460 nm, after excitation at 355 nm. KD was estimated from the slope of the regression curve obtained by plotting the reciprocal of the fraction of bound antibody versus the reciprocal of the molar concentration of antigen.

Aβ fragment 1-16 = target: T3, Aβ fragment 1-16 (human); assay: as above
T3 construct: also called Aβ1-16; Aβ16
T3 peptide: DAEFRHDSGYEVHHQK
Procedure: as §1

A-beta 40 peptide (Aβ40) = target: T4, A-beta 40 peptide (Aβ40) (human, biotinylated when bound to the streptavidin-coated ELISA plate); assay: ELISA on plate-bound Aβ
T4 construct: Aβ42 without the C-terminal amino acids IA; The ELISA methods say A-beta 40 or A-beta 42 (preferably A-beta 40); also called Aβ1-40

VHH R3VQ = target: B1; assay: competitive inhibition ELISA, soluble peptide against plate-coated Aβ antigen
Procedure: as §1

T4 sequence (peptide, as listed by the source): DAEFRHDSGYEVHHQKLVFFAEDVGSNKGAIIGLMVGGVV
T1 sequence (peptide, as listed by the source): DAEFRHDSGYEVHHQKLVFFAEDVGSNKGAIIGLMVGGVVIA

With B1 the Kd (A-beta 42 peptide (Aβ42)) was 17 nM, the binding result (Aβ fragment 29-40) was “no binding” and the binding result (Aβ fragment 1-16) was “no binding”.

B2: R3VQ(His)-N-(DOTA/Gd) conjugate 2d (VHH)
VHH: EVQLQASGGGLVQTGDSLRLSCADSGSTFRNYNIGWFRQTPGQAREFVAAVSRTGISTHVADSLQGRFTISRDNAKNTVYLQMNSLKPEDTAVYSCAAGRPGVGAVNRAMDYDYWGQGTQVTVSS
modifications: DOTA/Gd randomly on lysine residues; average Gd/protein (1) 2 (3)
notes: Non-site-specific conjugate of R3VQ(His)-NH2 1; not shown: 6-Histidine tag from modified vector pET23
For B2, the “binding in ELISA compared to the original VHH 1” value (A-beta 40 peptide (Aβ40)) was ~10%.

B3: R3VQ(His)-N-(DOTA/Gd) conjugate 2c (VHH)
VHH: EVQLQASGGGLVQTGDSLRLSCADSGSTFRNYNIGWFRQTPGQAREFVAAVSRTGISTHVADSLQGRFTISRDNAKNTVYLQMNSLKPEDTAVYSCAAGRPGVGAVNRAMDYDYWGQGTQVTVSS
modifications: DOTA/Gd randomly on lysine residues; average Gd/protein (1) 2 (3)
notes: as for B2
For B3, the “binding in ELISA compared to the original VHH 1” value (A-beta 40 peptide (Aβ40)) was ~10%.

B4: Aβ 16-35 (peptide)
peptide: KLVFFAEDVGSNKGAIIGLM
notes: This fragment is not in the list of fragments said to be tested (1-16, 10-20, 15-25, 22-35, 29-40)
B4 gave an IC50 (VHH R3VQ) of 16 nM.
